# Reference: patent US20110008351A1
# Legend:
# [1] = molecular target: purified human properdin (human) (UniProt P27918); assay: cell-based or functional assay
# [2] = molecular target: purified human properdin (human) (UniProt P27918); assay: ELISA, preformed C3bBbP on C3b-coated plates incubated with increasing IRAC II; bound properdin detected with anti-properdin antibody
# [3] = molecular target: purified human properdin (human) (UniProt P27918); assay: ELISA, preformed C3bBbP on C3b-coated plates incubated with increasing IxAC-B1; bound properdin detected with anti-properdin antibody
# Sequence of purified human properdin (human) (P27918 28-469 limits assumed): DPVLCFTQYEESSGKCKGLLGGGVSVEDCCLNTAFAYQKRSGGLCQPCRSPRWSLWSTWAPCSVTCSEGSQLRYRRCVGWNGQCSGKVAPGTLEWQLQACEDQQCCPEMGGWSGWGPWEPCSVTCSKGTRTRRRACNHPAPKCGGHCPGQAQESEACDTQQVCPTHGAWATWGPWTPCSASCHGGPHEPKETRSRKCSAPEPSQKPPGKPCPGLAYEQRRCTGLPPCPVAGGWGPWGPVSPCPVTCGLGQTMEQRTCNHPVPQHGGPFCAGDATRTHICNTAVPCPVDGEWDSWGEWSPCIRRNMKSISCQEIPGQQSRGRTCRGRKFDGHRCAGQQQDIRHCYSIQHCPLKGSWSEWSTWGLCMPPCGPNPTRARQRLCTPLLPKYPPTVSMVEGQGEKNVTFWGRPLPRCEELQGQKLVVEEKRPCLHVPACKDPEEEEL
Substance,inhibition of alternative pathway haemolysis of rabbit red blood cells by human serum [1],percent of pre-bound properdin displaced [2],percent of pre-bound properdin displaced [3]
recombinant IRAC II-V5His (Ixodes ricinus anticomplement protein II),85%,50%,–
recombinant IxAC-B5-V5His,85%,–,–
recombinant IRAC I-V5His (Ixodes ricinus anticomplement protein I),85%,–,–
recombinant IxAC-B1-V5His,85%,–,50%
recombinant IxAC-B2-V5His,85%,–,–
recombinant IxAC-B3-V5His,85%,–,–
recombinant IxAC-B4-V5His,85%,–,–
